Where a chain is given by its changes, count along the chain named.
T1: human CD22 on CD22-positive Burkitt's lymphoma cells (Daudi, Raji, Ramos) (human, UniProt P20273 20-847)
T1 construct: whole, on cells; also called CD22+ cells; CD22 positive cells
T1 sequence (looked up): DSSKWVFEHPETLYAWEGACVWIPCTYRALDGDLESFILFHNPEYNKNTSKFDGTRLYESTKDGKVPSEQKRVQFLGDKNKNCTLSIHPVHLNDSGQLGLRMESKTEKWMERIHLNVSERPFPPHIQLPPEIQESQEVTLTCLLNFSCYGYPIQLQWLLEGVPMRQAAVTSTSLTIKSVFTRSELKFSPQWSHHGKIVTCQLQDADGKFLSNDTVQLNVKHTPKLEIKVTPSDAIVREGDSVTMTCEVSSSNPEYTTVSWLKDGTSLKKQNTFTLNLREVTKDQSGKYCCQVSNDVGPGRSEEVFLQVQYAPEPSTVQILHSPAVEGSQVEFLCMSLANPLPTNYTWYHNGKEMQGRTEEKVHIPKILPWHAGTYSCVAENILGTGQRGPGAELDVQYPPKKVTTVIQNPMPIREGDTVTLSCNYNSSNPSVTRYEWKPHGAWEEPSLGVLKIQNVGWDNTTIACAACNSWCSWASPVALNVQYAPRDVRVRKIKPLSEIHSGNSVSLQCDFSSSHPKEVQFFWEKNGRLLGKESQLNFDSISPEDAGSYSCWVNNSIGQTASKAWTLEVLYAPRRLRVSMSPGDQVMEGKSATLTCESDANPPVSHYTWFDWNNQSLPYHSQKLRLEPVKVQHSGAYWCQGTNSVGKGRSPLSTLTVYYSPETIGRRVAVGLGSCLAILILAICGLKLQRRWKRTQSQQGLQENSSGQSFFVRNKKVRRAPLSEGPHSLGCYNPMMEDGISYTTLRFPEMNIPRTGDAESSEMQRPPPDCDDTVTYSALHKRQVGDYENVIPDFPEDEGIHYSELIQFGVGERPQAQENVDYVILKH

T2: human CD22 protein (recombinant CD22 extracellular domain) (human, UniProt P20273 20-687)
T2 construct: extracellular domain; also called SIGLEC-2
T2 sequence (looked up): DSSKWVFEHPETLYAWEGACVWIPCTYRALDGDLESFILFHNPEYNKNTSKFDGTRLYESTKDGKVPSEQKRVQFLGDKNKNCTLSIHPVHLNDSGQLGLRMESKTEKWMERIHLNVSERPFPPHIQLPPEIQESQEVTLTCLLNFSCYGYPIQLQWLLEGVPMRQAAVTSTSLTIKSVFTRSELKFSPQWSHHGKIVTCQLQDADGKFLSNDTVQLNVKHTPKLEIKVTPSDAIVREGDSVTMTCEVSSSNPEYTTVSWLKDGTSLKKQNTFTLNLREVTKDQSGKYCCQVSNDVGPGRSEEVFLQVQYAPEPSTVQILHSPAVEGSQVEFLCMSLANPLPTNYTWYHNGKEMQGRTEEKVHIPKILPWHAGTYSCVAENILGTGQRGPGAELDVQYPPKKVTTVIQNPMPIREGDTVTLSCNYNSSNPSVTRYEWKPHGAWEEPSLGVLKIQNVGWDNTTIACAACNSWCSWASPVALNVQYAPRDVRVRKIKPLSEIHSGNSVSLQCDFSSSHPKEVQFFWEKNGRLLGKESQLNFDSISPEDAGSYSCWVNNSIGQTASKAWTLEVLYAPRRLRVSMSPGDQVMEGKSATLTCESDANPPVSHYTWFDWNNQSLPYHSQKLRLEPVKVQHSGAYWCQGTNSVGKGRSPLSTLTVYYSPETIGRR

B1: anti-CD22 heavy chain-only antibody with the VH of SEQ ID NO: 59 (antibody, V domains shown)
VH: QLQLQESGPGLVKPSETLSLTCTVSGDSISSSSYYWGWIRQPPGKGLEWIGSIYYSGSTYYNPSLKSRVTISVDTSKNQFSLKLSSVTAADTAVYYCTREDSSNWRSRGQGTLVTVSS
notes: Heavy chain-only antibody (UniAb), human IgG
B2: anti-CD22 heavy chain-only antibody with the VH of SEQ ID NO: 77 (antibody, V domains shown)
VH: B1 VH with D27G, I39F, Q41H, E48D, Y54H, K77R, K83N, E100D
notes: as for B1
B3: anti-CD22 heavy chain-only antibody with the VH of SEQ ID NO: 76 (antibody, V domains shown)
VH: B1 VH with D27G, I53V, S56T, S58A, S67N, E100D
notes: as for B1
B4: anti-CD22 heavy chain-only antibody with the VH of SEQ ID NO: 78 (antibody, V domains shown)
VH: B1 VH with G8D, D27G, Y34H, S52H, S58A, S67N, K77R, K83N
notes: as for B1
B5: anti-CD22 heavy chain-only antibody with the VH of SEQ ID NO: 81 (antibody, V domains shown)
VH: B1 VH with D27G, S30I, T59A, N62H, V73I, T98A, E100D
notes: as for B1
B6: anti-CD22 heavy chain-only antibody with the VH of SEQ ID NO: 70 (antibody, V domains shown)
VH: B1 VH with K13R, D27G, N104S
notes: as for B1
B7: anti-CD22 heavy chain-only antibody with the VH of SEQ ID NO: 66 (antibody, V domains shown)
VH: B1 VH with D27G, S67N
notes: as for B1
B8: anti-CD22 heavy chain-only antibody with the VH of SEQ ID NO: 61 (antibody, V domains shown)
VH: B1 VH with D27G, S58A, S67N, N104S
notes: as for B1
B9: anti-CD22 heavy chain-only antibody with the VH of SEQ ID NO: 64 (antibody, V domains shown)
VH: B1 VH with D27G, S52H, S58A, S67N, E100D
notes: as for B1
B10: anti-CD22 heavy chain-only antibody with the VH of SEQ ID NO: 83 (antibody, V domains shown)
VH: B1 VH with S32G, S33D, S52H, S58A, S67N, K77R, F80S, K83N
notes: as for B1
B11: anti-CD22 heavy chain-only antibody with the VH of SEQ ID NO: 75 (antibody, V domains shown)
VH: B1 VH with D27G, S52H, S58A, S67N, N104S
notes: as for B1
B12: anti-CD22 heavy chain-only antibody with the VH of SEQ ID NO: 72 (antibody, V domains shown)
VH: B1 VH with D27G, S58A, S67N, K77R, K83N, V94M
notes: as for B1
B13: anti-CD22 heavy chain-only antibody with the VH of SEQ ID NO: 62 (antibody, V domains shown)
VH: B1 VH with D27G, S52H, S58A, S67N, K77R, K83N, N104S
notes: as for B1
B14: anti-CD22 heavy chain-only antibody with the VH of SEQ ID NO: 65 (antibody, V domains shown)
VH: B1 VH with D27G, S58A, S67N, K77R, K83N, N104S
notes: as for B1
B15: anti-CD22 heavy chain-only antibody with the VH of SEQ ID NO: 74 (antibody, V domains shown)
VH: B1 VH with S32G, S33D, P42S, G44E, S52H, S58V, S67N, T98K, E100D
notes: as for B1
B16: anti-CD22 heavy chain-only antibody with the VH of SEQ ID NO: 84 (antibody, V domains shown)
VH: QLQLQESGPGLVKPSETLSLTCTVSGGSINDNSHYWGWIRQPPGKGLEWIGHIYYSGATYYNPSLKNRVTISVDTSRNQFSLNLSSVTAADTAVYYCTREDSSSWRSRGQGTLVTVSS
notes: as for B1
B17: anti-CD22 heavy chain-only antibody with the VH of SEQ ID NO: 63 (antibody, V domains shown)
VH: B1 VH with D27G, N104S
notes: as for B1
B18: anti-CD22 heavy chain-only antibody with the VH of SEQ ID NO: 80 (antibody, V domains shown)
VH: B16 VH with N30S, D31S, N32S, H34Y, S104N
notes: as for B1
B19: anti-CD22 heavy chain-only antibody with the VH of SEQ ID NO: 79 (antibody, V domains shown)
VH: B1 VH with D27G, S67N, K77R, K83N, E100D
notes: as for B1
B20: anti-CD22 heavy chain-only antibody with the VH of SEQ ID NO: 71 (antibody, V domains shown)
VH: B1 VH with D27G, S58A, S67N, K77R, K83N
notes: as for B1
B21: anti-CD22 heavy chain-only antibody with the VH of SEQ ID NO: 60 (antibody, V domains shown)
VH: B1 VH with D27G, T98A, N104S
notes: as for B1
B22: anti-CD22 heavy chain-only antibody with the VH of SEQ ID NO: 67 (antibody, V domains shown)
VH: B1 VH with D27G, S30T, E100D
notes: as for B1
B23: anti-CD22 heavy chain-only antibody with the VH of SEQ ID NO: 68 (antibody, V domains shown)
VH: B1 VH with D27G, S58V, S67N
notes: as for B1
B24: anti-CD22 heavy chain-only antibody with the VH of SEQ ID NO: 73 (antibody, V domains shown)
VH: B1 VH with D27G, S58V, S67N, N104S
notes: as for B1
B25: anti-CD22 heavy chain-only antibody with the VH of SEQ ID NO: 69 (antibody, V domains shown)
VH: B1 VH with D27G
notes: as for B1
B26: anti-CD22 heavy chain-only antibody with the VH of SEQ ID NO: 82 (antibody, V domains shown)
VH: B1 VH with D27G, S58A, S67N, K77R, K83N, E100D
notes: as for B1
B27: anti-CD22 heavy chain-only antibody with the VH of SEQ ID NO: 55 (antibody, V domains shown)
VH: QLQLQESGPGLVKPSETLSLTCAVYGGSFSGYYWGWIRQPPGKGLEWIGHIYYSGATYYNPSLKNRVTISVDTSRNQFSLNLSSVTAADTAVYYCTREDSSSWRSRGQGTLVTVSS
notes: as for B1

Each binder was assayed against T1, human CD22 on CD22-positive Burkitt's … (assay: cell binding, Daudi cells).
Description: Binding to CD22 positive cells was assessed by flow cytometry (Guava easyCyte 8HT, EMD Millipore) using the Daudi cell line (ATCC). Briefly, 100,000 target cells were stained with a dilution series of purified UniAbs™ for 30 minutes at 4° C. Following incubation, the cells were washed twice with flow cytometry buffer (1×PBS, 1% BSA, 0.1% NaN_3) and stained with goat F(ab')2 anti-human IgG conjugated to R-phycoerythrin (PE) (Southern Biotech, cat. #2042-09) to detect cell-bound antibodies. After a 20-minute incubation at 4° C., the cells were washed twice with flow cytometry buffer and then mean fluorescence intensity (MFI) was measured by flow cytometry. EC50 values were calculated using GraphPad Prism 7. Binding to *cynomolgus* CD22 positive cells was determined using the same protocol with the following modifications: the target cells were from CHO cells stably transfected to express the extracellular domain of *cynomolgus* CD22 and each antibody was tested at a single concentration (~1.7 µg/mL) so EC50 values were not calculated.

| binding result | Binder |
| --- | --- |
| binds | B1 |
| binds | B2 |
| binds | B3 |
| binds | B4 |
| binds | B5 |
| binds | B6 |
| binds | B7 |
| binds | B8 |
| binds | B9 |
| binds | B10 |
| binds | B11 |
| binds | B12 |
| binds | B13 |
| binds | B14 |
| binds | B15 |
| binds | B16 |
| binds | B17 |
| binds | B18 |
| binds | B19 |
| binds | B20 |
| binds | B21 |
| binds | B22 |
| binds | B23 |
| binds | B24 |
| binds | B25 |
| binds | B26 |
| binds | B27 |

These binders were tested against T2, human CD22 protein (recombinant CD22 …) (assay: ELISA on recombinant CD22 extracellular domain and/or cell binding).

| binding result | Binder |
| --- | --- |
| binds | B1 |
| binds | B2 |
| binds | B3 |
| binds | B4 |
| binds | B5 |
| binds | B6 |
| binds | B7 |
| binds | B8 |
| binds | B9 |
| binds | B10 |
| binds | B11 |
| binds | B12 |
| binds | B13 |
| binds | B14 |
| binds | B15 |
| binds | B16 |
| binds | B17 |
| binds | B18 |
| binds | B19 |
| binds | B20 |
| binds | B21 |
| binds | B22 |
| binds | B23 |
| binds | B24 |
| binds | B25 |
| binds | B26 |
| binds | B27 |
